Data taken from patent US20110086770A1 (ANAPHORE, published 2011).

T1: recombinant human IL-23R/Fc chimera (R&D Systems) (human, UniProt Q5VWK5 24-353)
T1 construct: bought; also called human IL-23R/Fc fusion protein; rhIL23RFc
T1 sequence (looked up): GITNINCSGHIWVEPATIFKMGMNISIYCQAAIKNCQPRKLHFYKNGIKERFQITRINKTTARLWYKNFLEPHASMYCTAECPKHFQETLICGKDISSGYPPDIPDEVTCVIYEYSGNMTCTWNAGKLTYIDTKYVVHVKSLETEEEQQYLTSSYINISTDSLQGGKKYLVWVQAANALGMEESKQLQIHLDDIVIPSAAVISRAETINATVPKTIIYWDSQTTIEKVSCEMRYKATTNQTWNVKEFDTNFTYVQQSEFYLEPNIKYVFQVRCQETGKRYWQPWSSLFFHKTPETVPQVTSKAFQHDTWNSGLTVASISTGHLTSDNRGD


Each binder was assayed against T1, recombinant human IL-23R/Fc chimera … (assay: competition ELISA against IL-23).
Procedure: Assays were performed generally as follows. Individual wells in Immulon HB2 plates were incubated overnight at 4° C. with 100 μL PBS containing 100 ng of an anti-human IgG Fc (R&D MAB 110 clone 97924). Plates were washed five times with PBS/0.05% Tween 20, and wells were incubated for 1.5 h at RT with 100 μL each of PBS containing 50 ng of recombinant human IL-23R/Fc. […] Competitor was included at a final concentration of 1 μg/mL. After incubation, plates were washed as described and wells were incubated for 40 min at RT with 100 μL each of PBS containing a 1:5000 dilution of streptavidin-HRP conjugate (Pierce catalog no. 21130). After washing, wells were incubated with 100 μL each of TMB (BioFX Lab catalog no. TMBH-1000-0) for up to 30 min at RT. Reactions were stopped with an equal volume of 0.2 M sulfuric acid.

Binder | Ratio IC50 to 056-53.H4E IC50 [ratio]
105-08-2C9 ATRIMER (designed binder, not shown: C-terminal tag: His/Myc (pANA4) or HA-StrepII (pANA10)) EPPTQKPKKIVNAKKDVVNTKMFEELKSRLDTLAQEVALLKEQQALQTVCLKGTKVHMKCFLAFTQTKTFHEASEDCISRGGTLSTPQTGSENDALYEYLRQSVGNEAEIWLGLNGSTLTNTWVDMTGARIAYKNWETEITAQPDGGWGYFGENCAVLSGAANGKWFDKRCRDQLPYICQFGIV | 5.3
105-08-2D2 ATRIMER (designed binder, Forms a homotrimer (ATRIMER) through the tetranectin coiled coil; one protomer is given., not shown: C-terminal tag) EPPTQKPKKIVNAKKDVVNTKMFEELKSRLDTLAQEVALLKEQQALQTVCLKGTKVHMKCFLAFTQTKTFHEASEDCISRGGTLSTPQTGSENDALYEYLRQSVGNEAEIWLGLNGSARTGTWVDMTGARIAYKNWETEITAQPDGGFGYFGENCAVLSGAANGKWFDKRCRDQLPYICQFGIV | 4.1
105-08-2C11 ATRIMER (designed binder) EPPTQKPKKIVNAKKDVVNTKMFEELKSRLDTLAQEVALLKEQQALQTVCLKGTKVHMKCFLAFTQTKTFHEASEDCISRGGTLSTPQTGSENDALYEYLRQSVGNEAEIWLGLNGSLKTQTWVDMTGARIAYKNWETEITAQPDGGWGYFGENCAVLSGAANGKWFDKRCRDQLPYICQFGIV | 9.1
105-08-2C10 ATRIMER (designed binder, not shown: C-terminal purification tag: Myc/His6 (pANA4) or HA-StrepII (pANA10)) EPPTQKPKKIVNAKKDVVNTKMFEELKSRLDTLAQEVALLKEQQALQTVCLKGTKVHMKCFLAFTQTKTFHEASEDCISRGGTLSTPQTGSENDALYEYLRQSVGNEAEIWLGLNGSLLTDTWVDMTGARIAYKNWETEITAQPDGGFGVFGENCAVLSGAANGKWFDKRCRDQLPYICQFGIV | 0.9
105-08-2C12 ATRIMER (designed binder, Homotrimer of the given chain (ATRIMER complex).) EPPTQKPKKIVNAKKDVVNTKMFEELKSRLDTLAQEVALLKEQQALQTVCLKGTKVHMKCFLAFTQTKTFHEASEDCISRGGTLSTPQTGSENDALYEYLRQSVGNEAEIWLGLNGSQRTDTWVDMTGARIAYKNWETEITAQPDGGFGYFGENCAVLSGAANGKWFDKRCRDQLPYICQFGIV | 3.3
105-08-2E12 ATRIMER (designed binder) EPPTQKPKKIVNAKKDVVNTKMFEELKSRLDTLAQEVALLKEQQALQTVCLKGTKVHMKCFLAFTQTKTFHEASEDCISRGGTLSTPQTGSENDALYEYLRQSVGNEAEIWLGLNGSGLTDTWVDMTGARIAYKNWETEITAQPDGGWGYFGENCAVLSGAANGKWFDKRCRDQLPYICQFGIV | 9.1
105-08-2G1 ATRIMER (designed binder) EPPTQKPKKIVNAKKDVVNTKMFEELKSRLDTLAQEVALLKEQQALQTVCLKGTKVHMKCFLAFTQTKTFHEASEDCISRGGTLSTPQTGSENDALYEYLRQSVGNEAEIWLGLNGSPKTHTWVDMTGARIAYKNWETEITAQPDGGFGYFGENCAVLSGAANGKWFDKRCRDQLPYICQFGIV | 2.2
105-08-2F6 ATRIMER (designed binder, not shown: C-terminal tag: His/Myc (pANA4) or HA-StrepII (pANA10)) EPPTQKPKKIVNAKKDVVNTKMFEELKSRLDTLAQEVALLKEQQALQTVCLKGTKVHMKCFLAFTQTKTFHEASEDCISRGGTLSTPQTGSENDALYEYLRQSVGNEAEIWLGLNGSAYTNTWVDMTGARIAYKNWETEITAQPDGGFGYFGENCAVLSGAANGKWFDKRCRDQLPYICQFGIV | 2.4
105-08-2G2 ATRIMER (designed binder) EPPTQKPKKIVNAKKDVVNTKMFEELKSRLDTLAQEVALLKEQQALQTVCLKGTKVHMKCFLAFTQTKTFHEASEDCISRGGTLSTPQTGSENDALYEYLRQSVGNEAEIWLGLNGSAITDTWVDMTGARIAYKNWETEITAQPDGGWGYFGENCAVLSGAANGKWFDKRCRDQLPYICQFGIV | 3.8
